Reference: publication PMC8988006, “Structural and biochemical characterization of the prenylated flavin mononucleotide-dependent indole-3-carboxylic acid decarboxylase” (The Journal of Biological Chemistry, 2022)
Substitutions are numbered along the chain they refer to. One block for each compound: values may come before it.

What was measured:
[1] = molecular target: indole-3-carboxylate decarboxylase from Arthrobacter nicotianae (Arthrobacter nicotianae); experiment: SAXS; HPLC SAXS (Shodex KW-403 column, 0.15 ml/min) on beamline B21, Diamond Light Source; ab initio envelope (DAMMIN/DAMAVER) with the hexamer crystal structure superimposed
[2] = molecular target: indole-3-carboxylate decarboxylase from Arthrobacter nicotianae (Arthrobacter nicotianae); experiment: crystal structure; AnInD at ca 15 mg/ml, sitting drop vapor diffusion, PACT screen condition G5, 20 °C; crystals soaked with prFMN; space group P2_(1); whole hexamer in the asymmetric unit
O=C(O)c1c[nH]c2ccccc12 = system: T1, O=C(O)c1c[nH]c2ccccc12; experiment: purified protein; type: biochemical, Glutamicibacter nicotianae; conditions: prFMN-reconstituted enzyme, Mn2+, 50 mM potassium phosphate pH 6.5, 50 mM KCl, room temperature, apparent because active enzyme (prFMN) content is unknown
T1 construct: His6-tagged (C-terminal in pET30a or N-terminal in pET28a), E. coli BL21(DE3), Ni-NTA, ~50 kDa by SDS-PAGE, hexamer, reconstituted with prFMN and Mn2+

[3] = molecular target: T2, AnInD (indole-3-carboxylic acid decarboxylase) (Glutamicibacter nicotianae, UniProt Z9P359VB74, D169L); experiment: end point HPLC decarboxylation assay; type: biochemical; conditions: prFMN-reconstituted; 50 mM potassium phosphate pH 6.5, 10 mM I3C, 2 μM enzyme
T2 construct: His6-tagged (C-terminal in pET30a or N-terminal in pET28a), E. coli BL21(DE3), Ni-NTA, ~50 kDa by SDS-PAGE, hexamer, reconstituted with prFMN and Mn2+
T2 sequence (Z9P359VB74 2-461 D169L): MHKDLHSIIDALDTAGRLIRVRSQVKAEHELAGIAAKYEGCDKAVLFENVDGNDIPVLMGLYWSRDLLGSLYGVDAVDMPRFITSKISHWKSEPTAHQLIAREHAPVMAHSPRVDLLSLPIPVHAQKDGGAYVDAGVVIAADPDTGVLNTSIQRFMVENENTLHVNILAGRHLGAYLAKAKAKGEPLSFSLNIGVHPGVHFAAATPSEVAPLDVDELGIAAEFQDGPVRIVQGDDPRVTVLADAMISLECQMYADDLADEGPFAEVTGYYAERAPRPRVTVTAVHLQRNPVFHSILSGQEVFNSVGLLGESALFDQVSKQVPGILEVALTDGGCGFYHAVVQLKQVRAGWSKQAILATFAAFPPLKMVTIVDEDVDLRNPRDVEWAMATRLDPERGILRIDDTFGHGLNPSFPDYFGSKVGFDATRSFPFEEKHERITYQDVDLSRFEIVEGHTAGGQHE

[4] = molecular target: T3, SrCAR (Seginiliparous rugosus carboxylic acid reductase) (Segniliparus rugosus, UniProt E5XP76); experiment: one-pot cascade with AnInD, HPLC; type: biochemical; conditions: I3C formed in situ from indole + NaHCO3 by AnInD; ATP, NADPH, Mn2+, Mg2+; potassium phosphate, 30 °C
T3 construct: gene car
T3 sequence (E5XP76 1-1188): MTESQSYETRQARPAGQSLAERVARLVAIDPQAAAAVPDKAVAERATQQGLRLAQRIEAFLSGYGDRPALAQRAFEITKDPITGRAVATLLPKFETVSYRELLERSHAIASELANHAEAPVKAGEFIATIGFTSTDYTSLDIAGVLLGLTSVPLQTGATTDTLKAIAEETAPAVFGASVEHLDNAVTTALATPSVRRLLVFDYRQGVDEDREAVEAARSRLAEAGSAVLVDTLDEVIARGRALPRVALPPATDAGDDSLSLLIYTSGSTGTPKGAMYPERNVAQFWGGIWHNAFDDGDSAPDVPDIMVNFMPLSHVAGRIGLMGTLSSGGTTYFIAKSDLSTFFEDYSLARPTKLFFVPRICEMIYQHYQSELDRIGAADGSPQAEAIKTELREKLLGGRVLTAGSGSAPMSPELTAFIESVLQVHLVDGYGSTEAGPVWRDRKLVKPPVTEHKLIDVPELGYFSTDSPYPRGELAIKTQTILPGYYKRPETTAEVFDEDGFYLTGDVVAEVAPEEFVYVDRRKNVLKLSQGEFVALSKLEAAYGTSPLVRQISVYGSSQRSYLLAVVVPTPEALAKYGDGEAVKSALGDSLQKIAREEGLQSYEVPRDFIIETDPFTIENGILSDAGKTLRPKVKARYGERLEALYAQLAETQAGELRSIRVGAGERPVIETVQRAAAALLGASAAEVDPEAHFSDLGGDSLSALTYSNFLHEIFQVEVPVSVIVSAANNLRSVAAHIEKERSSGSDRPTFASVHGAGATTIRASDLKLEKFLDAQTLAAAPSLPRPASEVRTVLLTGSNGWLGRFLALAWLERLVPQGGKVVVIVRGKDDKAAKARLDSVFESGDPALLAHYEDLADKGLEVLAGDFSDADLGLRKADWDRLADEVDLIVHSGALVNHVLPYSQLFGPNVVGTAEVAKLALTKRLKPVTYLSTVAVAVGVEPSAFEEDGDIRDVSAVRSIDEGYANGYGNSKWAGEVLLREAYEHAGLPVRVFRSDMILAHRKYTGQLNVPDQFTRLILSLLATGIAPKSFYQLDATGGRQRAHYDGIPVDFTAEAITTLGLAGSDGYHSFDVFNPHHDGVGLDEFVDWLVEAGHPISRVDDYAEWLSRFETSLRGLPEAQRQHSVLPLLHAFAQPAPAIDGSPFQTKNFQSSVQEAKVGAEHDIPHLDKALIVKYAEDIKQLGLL

[5] = molecular target: T4, AnInD (indole-3-carboxylic acid decarboxylase) (Glutamicibacter nicotianae, UniProt Z9P359VB74, D169V); experiment: end point HPLC decarboxylation assay; type: biochemical; conditions: prFMN-reconstituted; 50 mM potassium phosphate pH 6.5, 10 mM I3C, 2 μM enzyme
T4 construct: His6-tagged (C-terminal in pET30a or N-terminal in pET28a), E. coli BL21(DE3), Ni-NTA, ~50 kDa by SDS-PAGE, hexamer, reconstituted with prFMN and Mn2+
T4 sequence (Z9P359VB74 2-461 D169V): T2 sequence (Z9P359VB74 2-461 D169L) with L168V

[6] = molecular target: T5, AnInD (indole-3-carboxylic acid decarboxylase) (Glutamicibacter nicotianae, UniProt Z9P359VB74, D169A); experiment: end point HPLC decarboxylation assay; type: biochemical; conditions: prFMN-reconstituted; 50 mM potassium phosphate pH 6.5, 10 mM I3C, 2 μM enzyme
T5 construct: His6-tagged (C-terminal in pET30a or N-terminal in pET28a), E. coli BL21(DE3), Ni-NTA, ~50 kDa by SDS-PAGE, hexamer, reconstituted with prFMN and Mn2+
T5 sequence (Z9P359VB74 2-461 D169A): T2 sequence (Z9P359VB74 2-461 D169L) with L168A

stoichiometry N [1]: 6 | stoichiometry N [2]: 6
Compound: indole-3-carboxylate decarboxylase from Arthrobacter nicotianae (enzyme)

Compound: AnInD (indole-3-carboxylic acid decarboxylase) (Glutamicibacter nicotianae)
Km (O=C(O)c1c[nH]c2ccccc12): 790 µM | kcat (O=C(O)c1c[nH]c2ccccc12): 4.4 (±0.3) s^−1

Compound: O=C(O)c1c[nH]c2ccccc12 [I3C, indole-3-carboxylic acid]
activity [3]: All AnInD D169X variants were found to be severely affected in activity | one-pot cascade with AnInD, HPLC [4]: These assays revealed the formation/production of indole-3-carboxyaldehyde | activity [5]: All AnInD D169X variants were found to be severely affected in activity | activity [6]: All AnInD D169X variants were found to be severely affected in activity
